The values that follow come from the RNAGym collection of RNA variant scans (doi:10.7554/elife.80360).

First the molecules themselves.
B1: HDV Ribozyme (parent)
chain: GGCCGGCAUGGUCCCAGCCUCCUCGCUGGCGCCGGCUGGGCAACAUUCCGAGGGGACCGUCCCCUCGGUAAUGGCGAAUGGGACCCA

Variants of B1 are the subject of this data set. The data set is described as follows: self-cleavage, relative activity (ratio to wild type); higher = more cleavage; co-transcriptional.
For C3G U69A, the self-cleavage stood at 0.582.
Take C48U G50C: the self-cleavage worked out at 0.965.
Take U23C U72A: the self-cleavage was determined as 0.776.
In the case of C22G U47C it was 0.18; in that of U23A C30A, 0.466.
For the variant C13A A71U, the self-cleavage came to 0.0615.
As for G1C G10U, the self-cleavage stood at 0.143.
Take U20A A51C: the self-cleavage amounted to 0.
As to G52U C58U, the self-cleavage came out at 0.898.
As to C44A U46C, the self-cleavage turned out to be 0.767.
Take C49G A87C: the self-cleavage is 0.672.
Regarding C21G C44G, the self-cleavage was 0.141.
For the variant U9G G10U, the self-cleavage stood at 0.987.
Take C14U G81C: the self-cleavage turned out to be 0.806.
Take G28U G80C: the self-cleavage came out at 0.0639.
In the case of G54A A70C, the self-cleavage is 0.779.
Regarding C7A G38U, the self-cleavage is 0.0346.
Turning to C15G U20G, the self-cleavage worked out at 0.
G67U G80C: the self-cleavage was determined as 0.128.
C57G A83U: the self-cleavage came out at 0.587.
As to C4A U9C, the self-cleavage worked out at 0.268.
Turning to A42C C48A, the self-cleavage came out at 0.361.
Turning to C32G C64U, the self-cleavage was determined as 0.109.
Take G2A C14U: the self-cleavage worked out at 0.169.
As to A8C C26A, the self-cleavage turned out to be 0.629.
G5U C21A: the self-cleavage worked out at 0.
As to U65G G74U, the self-cleavage stood at 0.424.
Consider U9A U69C, for which the self-cleavage is 0.802.
Consider C4A A56G, for which the self-cleavage stood at 0.217.
In the case of G2C C86A, the self-cleavage worked out at 0.128.
With C33A U69G the figure was 0.287; with G73U C84A, 0.158; with C48U G55C, 0.938.
On to U23G C49U, for which the self-cleavage stood at 0.867.
C7U C64G: the self-cleavage amounted to 0.892.
As to A43C C48U, the self-cleavage turned out to be 0.619.
As for C13U C85U, the self-cleavage is 0.332.
With C48A G81A the figure was 0.448.
Take G10C C57A: the self-cleavage came out at 1.06.
For C13U A87C, the self-cleavage was determined as 0.647.
For the variant U12G G17A, the self-cleavage came out at 0.277.
Turning to C4G G6A, the self-cleavage was 0.
Consider U27G G59U, for which the self-cleavage came to 1.03.
As for G76A A78C, the self-cleavage was 0.242.
In the case of G53A C57U, the self-cleavage was determined as 1.06.
As to U46C G54C, the self-cleavage was 1.04.
In the case of G35U C84G it was 0.185; in that of C48U G68A, 0.885.
In the case of G11U G82C it was 0.117.
For the variant G1A G82C, the self-cleavage worked out at 0.133.
In the case of G2U U27C it was 0.0198.
Regarding G1U G52C, the self-cleavage worked out at 0.332.
U23G G35U: the self-cleavage turned out to be 0.283.
Take G2U G80U: the self-cleavage was 0.0208.
As for U9C C13G, the self-cleavage was 0.158.
For C41U C57U, the self-cleavage is 1.12.
Consider U60A G73C, for which the self-cleavage turned out to be 0.532.
Turning to C66G G80C, the self-cleavage worked out at 0.0959.
For the variant C18U C57A, the self-cleavage was 0.958.
On to G34U G50A, for which the self-cleavage came out at 0.312.
With C13U U37G the figure was 0.138; with C26U C86U, 0.831; with U27C G39U, 0.467.
As to C44G G76C, the self-cleavage stood at 0.511.
In the case of C36G C84U, the self-cleavage was determined as 0.0755.
As for G34U C86U, the self-cleavage stood at 0.187.
As to A16C C32A, the self-cleavage is 0.0554.
Take U23C C75U: the self-cleavage turned out to be 0.0739.
With C84G C86A the figure was 0.764.
A16C C19A: the self-cleavage was determined as 0.277.
Consider A16C C19G, for which the self-cleavage was 0.0594.
Take C63A A87G: the self-cleavage is 0.946.
In the case of U27A G50U it was 0.99; in that of U23C G25A, 0.101; in that of G73A A87G, 0.697.
Take C49A G76A: the self-cleavage was found to be 0.991.
Regarding C36A G67U, the self-cleavage worked out at 0.155.
For the variant C30A G68A, the self-cleavage came out at 0.411.
In the case of U37G C61U, the self-cleavage was found to be 0.138.
Take A42U: the self-cleavage was found to be 0.529.
For the variant A45U C48U, the self-cleavage worked out at 0.79.
For the variant C21G G50C, the self-cleavage stood at 0.116.
Turning to U69C A83U, the self-cleavage turned out to be 0.431.
C13U U72A: the self-cleavage was 0.128.
Regarding C7A A8G, the self-cleavage is 0.831.
As for C3U A77C, the self-cleavage came out at 0.0639.
With G31C G40U, the self-cleavage came out at 0.229.
In the case of C18A U65G, the self-cleavage was found to be 0.19.
For G10A A45G, the self-cleavage came to 0.598.
As for C18U A42U, the self-cleavage is 0.0627.
Consider G31U C49A, for which the self-cleavage amounted to 0.451.
In the case of G53A G74C it was 0.265; in that of C48U U69G, 0.869; in that of C36U A71C, 0.408.
In the case of C3G C21A it was 0.
C4A A42U: the self-cleavage was found to be 0.0997.
In the case of G28U C30G, the self-cleavage was 0.0886.
With G29C C36G, the self-cleavage worked out at 0.0536.
On to G38A G40C, for which the self-cleavage is 0.138.
As to G53C A78G, the self-cleavage amounted to 0.554.
For the variant A43G C66A, the self-cleavage is 0.554.
In the case of A56U C64G it was 0.882; in that of G1C A78G, 0.0573; in that of C21A G76A, 0.256.
On to A51U A83C, for which the self-cleavage worked out at 0.269.
For the variant G11A G25C, the self-cleavage was determined as 0.0906.
As for U20C G54A, the self-cleavage was determined as 0.145.
On to G6U G38U, for which the self-cleavage is 0.0308.
Consider C41G A45G, for which the self-cleavage turned out to be 1.01.
In the case of A43C C66A it was 0.302; in that of G59C C64G, 0.892.
Turning to C7A G50A, the self-cleavage came to 0.527.
Take A51U A77C: the self-cleavage turned out to be 0.453.
As for G73U G82C, the self-cleavage was determined as 0.157.
As to C4A U23A, the self-cleavage was determined as 0.309.
With G39U A43U the figure was 0.148; with C18A G39C, 0.0755.
As for C18G A43G, the self-cleavage is 0.145.
With C41A A45G the figure was 0.942; with C4U C24A, 0.0583; with A51C U69A, 1.13.
C22A G34C: the self-cleavage came out at 0.0773.
With G10A G68C, the self-cleavage amounted to 0.453.
Take C63A C75A: the self-cleavage worked out at 0.338.
Take C44A G52A: the self-cleavage was found to be 0.776.
As for G10C G55C, the self-cleavage came to 0.759.
Turning to G11C A71C, the self-cleavage came to 0.306.
Regarding U9C A87C, the self-cleavage came to 0.813.
Consider C30U C62G, for which the self-cleavage came to 0.475.
For G2A C13U, the self-cleavage worked out at 0.058.
With C13G A87G the figure was 0.0903.
As for G31C C84A, the self-cleavage was determined as 0.443.
In the case of U23C U65G, the self-cleavage is 0.95.
On to C3G G76U, for which the self-cleavage came out at 0.926.
As to G40C A78C, the self-cleavage was determined as 0.147.
Consider A8U C44U, for which the self-cleavage worked out at 0.415.
In the case of G38A U69A, the self-cleavage was 0.148.
On to G5A C18A, for which the self-cleavage stood at 0.0875.
As to G29U C32U, the self-cleavage was found to be 0.0665.
With C49A U72A, the self-cleavage amounted to 0.225.
As for G80C C85A, the self-cleavage came out at 0.117.
Take U23A A71G: the self-cleavage was 0.8.
As to G38C A77G, the self-cleavage came out at 0.0536.
In the case of U79G, the self-cleavage amounted to 0.742.
In the case of A8C U9C it was 0.962.
In the case of G31A A45C, the self-cleavage stood at 0.262.
Turning to A70U A87G, the self-cleavage came to 1.02.
With U65A C85G, the self-cleavage is 0.604.
Take C48U A51G: the self-cleavage amounted to 0.618.
Turning to G39C C85G, the self-cleavage was 0.298.
As to C7A A70C, the self-cleavage is 0.346.
Consider G34A G50U, for which the self-cleavage worked out at 0.187.
As to U9C C75U, the self-cleavage was 0.138.
Turning to G5U A8G, the self-cleavage came to 0.356.
With C15U G38C the figure was 0.17.
For C15A G74C, the self-cleavage is 0.185.
As to U65C G67U, the self-cleavage is 0.627.
Take G40A C48U: the self-cleavage was 0.793.
Regarding A8G U20C, the self-cleavage amounted to 0.217.
Consider U9C U27A, for which the self-cleavage is 0.935.
In the case of C13U G67A, the self-cleavage came out at 0.572.
With C19U U79C the figure was 0.0415.
As for C13A C14A, the self-cleavage is 0.128.
With C30G G52A, the self-cleavage is 0.0287.
C48U A70U: the self-cleavage was determined as 1.07.
As for C33G G52A, the self-cleavage stood at 0.148.
As to G31U C58U, the self-cleavage is 0.571.
